Laboratory results as given in the supplement of paper PMC9112550, “Optimization of the antimicrobial peptide Bac7 by deep mutational scanning” (BMC Biology, 2022).

System: Escherichia coli TOP10
Assay: shrunken log2 fold change of peptide-encoding DNA abundance (4.5 h post-induction vs induction); higher = less antimicrobial activity (less host growth inhibition)
Details: time post-induction: 4.5 h; library: site-saturation at positions 5, 18, 19, 20
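Further: peptides expressed intracellularly from a pBAD plasmid library in pooled LB shake-flask culture, induced with 0.3% L-arabinose, DNA abundance read by NGS, three biological replicates, DESeq2 with apeglm shrinkage.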

RRIRIRPPRLPRPRPRPHDWPRP
shrunken log2 fold change: -0.317

RRIRSRPPRLPRPRPRPFCYPRP
shrunken log2 fold change: -0.528

RRIRHRPPRLPRPRPRPTLIPRP
shrunken log2 fold change: 0.0888

RRIRYRPPRLPRPRPRPIFAPRP
shrunken log2 fold change: 0.159

RRIRWRPPRLPRPRPRPAFTPRP
shrunken log2 fold change: 0.0598

RRIRDRPPRLPRPRPRPENYPRP
shrunken log2 fold change: 0.0528

RRIRERPPRLPRPRPRPDNEPRP
shrunken log2 fold change: -0.0338

RRIRPRPPRLPRPRPRPCMHPRP
shrunken log2 fold change: -0.297

RRIRNRPPRLPRPRPRPQAVPRP
shrunken log2 fold change: -0.0343

RRIRIRPPRLPRPRPRPFYFPRP
shrunken log2 fold change: -0.448

RRIRIRPPRLPRPRPRPDDGPRP
shrunken log2 fold change: -0.184

RRIRDRPPRLPRPRPRPTQGPRP
shrunken log2 fold change: 0.797

RRIRERPPRLPRPRPRPYIIPRP
shrunken log2 fold change: -0.837

RRIRKRPPRLPRPRPRPHIFPRP
shrunken log2 fold change: -0.0478

RRIRARPPRLPRPRPRPKEGPRP
shrunken log2 fold change: -0.00115

RRIRLRPPRLPRPRPRPNIIPRP
shrunken log2 fold change: -0.313

RRIRWRPPRLPRPRPRPSMIPRP
shrunken log2 fold change: -0.12

RRIRTRPPRLPRPRPRPRNDPRP
shrunken log2 fold change: -0.227

RRIRMRPPRLPRPRPRPGDYPRP
shrunken log2 fold change: 0.0762

RRIRKRPPRLPRPRPRPRARPRP
shrunken log2 fold change: 0.776

RRIRERPPRLPRPRPRPMPFPRP
shrunken log2 fold change: 0.00529

RRIRPRPPRLPRPRPRPKPKPRP
shrunken log2 fold change: 0.382

RRIRARPPRLPRPRPRPSILPRP
shrunken log2 fold change: -0.156

RRIRERPPRLPRPRPRPDQDPRP
shrunken log2 fold change: -0.00875

RRIRERPPRLPRPRPRPHFGPRP
shrunken log2 fold change: -0.0492

RRIRSRPPRLPRPRPRPMCKPRP
shrunken log2 fold change: 0.204

RRIRGRPPRLPRPRPRPNSIPRP
shrunken log2 fold change: 0.00326

RRIRGRPPRLPRPRPRPKDVPRP
shrunken log2 fold change: -0.0336

RRIRARPPRLPRPRPRPQRCPRP
shrunken log2 fold change: 0.256

RRIRPRPPRLPRPRPRPAIDPRP
shrunken log2 fold change: 1.19

RRIRFRPPRLPRPRPRPNWYPRP
shrunken log2 fold change: -0.542

RRIRIRPPRLPRPRPRPTWHPRP
shrunken log2 fold change: -0.242

RRIRFRPPRLPRPRPRPRIVPRP
shrunken log2 fold change: -0.267

RRIRLRPPRLPRPRPRPDHSPRP
shrunken log2 fold change: -0.0489

RRIRARPPRLPRPRPRPNLRPRP
shrunken log2 fold change: 0.022

RRIRKRPPRLPRPRPRPRLRPRP
shrunken log2 fold change: 0.485

RRIRPRPPRLPRPRPRPPERPRP
shrunken log2 fold change: 0.322

RRIRPRPPRLPRPRPRPDDQPRP
shrunken log2 fold change: 0.0917

RRIRERPPRLPRPRPRPRGQPRP
shrunken log2 fold change: 0.837

RRIRARPPRLPRPRPRPEEAPRP
shrunken log2 fold change: 3.84

RRIRERPPRLPRPRPRPTSTPRP
shrunken log2 fold change: -0.319

RRIRGRPPRLPRPRPRPGQEPRP
shrunken log2 fold change: 0.974

RRIRDRPPRLPRPRPRPMDTPRP
shrunken log2 fold change: -0.0196

RRIRVRPPRLPRPRPRPMKAPRP
shrunken log2 fold change: 0.0113

RRIRSRPPRLPRPRPRPIELPRP
shrunken log2 fold change: -0.122

RRIRIRPPRLPRPRPRPEDGPRP
shrunken log2 fold change: -0.00203

RRIRVRPPRLPRPRPRPEQVPRP
shrunken log2 fold change: 0.0835

RRIRNRPPRLPRPRPRPGGQPRP
shrunken log2 fold change: 0.0599

RRIRKRPPRLPRPRPRPKSQPRP
shrunken log2 fold change: 0.109

RRIRFRPPRLPRPRPRPINGPRP
shrunken log2 fold change: -0.0164

RRIRQRPPRLPRPRPRPKYSPRP
shrunken log2 fold change: -0.0125

RRIRTRPPRLPRPRPRPNNNPRP
shrunken log2 fold change: -0.451

RRIRSRPPRLPRPRPRPLLDPRP
shrunken log2 fold change: 0.218

RRIRWRPPRLPRPRPRPLLVPRP
shrunken log2 fold change: 0.172

RRIRLRPPRLPRPRPRPGMAPRP
shrunken log2 fold change: 0.145

RRIRIRPPRLPRPRPRPSDKPRP
shrunken log2 fold change: -0.79

RRIRIRPPRLPRPRPRPKWDPRP
shrunken log2 fold change: -0.13

RRIRERPPRLPRPRPRPFVWPRP
shrunken log2 fold change: -0.0465

RRIRGRPPRLPRPRPRPKYKPRP
shrunken log2 fold change: 0.0104

RRIRTRPPRLPRPRPRPSFTPRP
shrunken log2 fold change: -0.867

RRIRARPPRLPRPRPRPTAGPRP
shrunken log2 fold change: 0.902

RRIRNRPPRLPRPRPRPHTIPRP
shrunken log2 fold change: -0.106

RRIRWRPPRLPRPRPRPPASPRP
shrunken log2 fold change: 0.319

RRIRSRPPRLPRPRPRPMNIPRP
shrunken log2 fold change: -0.196

RRIRWRPPRLPRPRPRPAPTPRP
shrunken log2 fold change: 0.695

RRIRYRPPRLPRPRPRPCWGPRP
shrunken log2 fold change: -0.204

RRIRLRPPRLPRPRPRPYQLPRP
shrunken log2 fold change: -0.253

RRIRIRPPRLPRPRPRPADLPRP
shrunken log2 fold change: 0.0446

RRIRTRPPRLPRPRPRPSRAPRP
shrunken log2 fold change: 0.271

RRIRIRPPRLPRPRPRPGPYPRP
shrunken log2 fold change: -0.376

RRIRERPPRLPRPRPRPFDGPRP
shrunken log2 fold change: 0.000346

RRIRNRPPRLPRPRPRPDKNPRP
shrunken log2 fold change: -0.226

RRIRKRPPRLPRPRPRPHWDPRP
shrunken log2 fold change: 0.0835

RRIRYRPPRLPRPRPRPLNCPRP
shrunken log2 fold change: -0.295

RRIRPRPPRLPRPRPRPQAIPRP
shrunken log2 fold change: 0.186

RRIRARPPRLPRPRPRPMSPPRP
shrunken log2 fold change: 0.342

RRIRYRPPRLPRPRPRPPDFPRP
shrunken log2 fold change: -0.136

RRIRGRPPRLPRPRPRPLKIPRP
shrunken log2 fold change: 0.365

RRIRCRPPRLPRPRPRPPHCPRP
shrunken log2 fold change: 0.971

RRIRCRPPRLPRPRPRPMNQPRP
shrunken log2 fold change: -0.248

RRIRQRPPRLPRPRPRPSFKPRP
shrunken log2 fold change: -0.525

RRIRMRPPRLPRPRPRPPCMPRP
shrunken log2 fold change: 0.181

RRIRWRPPRLPRPRPRPHWAPRP
shrunken log2 fold change: -0.102

RRIRNRPPRLPRPRPRPRWCPRP
shrunken log2 fold change: 0.169

RRIRERPPRLPRPRPRPGMWPRP
shrunken log2 fold change: 0.178

RRIRWRPPRLPRPRPRPIKSPRP
shrunken log2 fold change: 0.0589

RRIRKRPPRLPRPRPRPLVVPRP
shrunken log2 fold change: -0.0832

RRIRRRPPRLPRPRPRPCCDPRP
shrunken log2 fold change: 0.583

RRIRNRPPRLPRPRPRPCEKPRP
shrunken log2 fold change: -0.0478

RRIRFRPPRLPRPRPRPQNEPRP
shrunken log2 fold change: -0.603

RRIRHRPPRLPRPRPRPPITPRP
shrunken log2 fold change: -0.346

RRIRSRPPRLPRPRPRPKGEPRP
shrunken log2 fold change: 0.379

RRIRMRPPRLPRPRPRPAKFPRP
shrunken log2 fold change: 0.0548

RRIRGRPPRLPRPRPRPLCFPRP
shrunken log2 fold change: 0.705

RRIRQRPPRLPRPRPRPMFLPRP
shrunken log2 fold change: -0.38

RRIRQRPPRLPRPRPRPAEPPRP
shrunken log2 fold change: 0.157

RRIRWRPPRLPRPRPRPFYQPRP
shrunken log2 fold change: -0.0811

RRIRLRPPRLPRPRPRPYWPPRP
shrunken log2 fold change: -0.518

RRIRCRPPRLPRPRPRPAVCPRP
shrunken log2 fold change: 0.297

RRIRIRPPRLPRPRPRPQTTPRP
shrunken log2 fold change: -0.38

RRIRVRPPRLPRPRPRPCYNPRP
shrunken log2 fold change: -0.11

RRIRQRPPRLPRPRPRPIDKPRP
shrunken log2 fold change: 0.0866

RRIRCRPPRLPRPRPRPVHFPRP
shrunken log2 fold change: 0.128

RRIRDRPPRLPRPRPRPSWFPRP
shrunken log2 fold change: -0.192

RRIRKRPPRLPRPRPRPHESPRP
shrunken log2 fold change: 0.23

RRIRHRPPRLPRPRPRPIDKPRP
shrunken log2 fold change: 0.0156

RRIRMRPPRLPRPRPRPWGTPRP
shrunken log2 fold change: 0.254

RRIRARPPRLPRPRPRPMENPRP
shrunken log2 fold change: 0.423

RRIRMRPPRLPRPRPRPHNFPRP
shrunken log2 fold change: -0.0303

RRIRGRPPRLPRPRPRPVKSPRP
shrunken log2 fold change: 0.0201

RRIRNRPPRLPRPRPRPHMQPRP
shrunken log2 fold change: -0.304

RRIRFRPPRLPRPRPRPLRFPRP
shrunken log2 fold change: 0.186

RRIRSRPPRLPRPRPRPRCFPRP
shrunken log2 fold change: 0.165

RRIRKRPPRLPRPRPRPIGYPRP
shrunken log2 fold change: -0.0204

RRIRWRPPRLPRPRPRPCMKPRP
shrunken log2 fold change: 0.00396

RRIRVRPPRLPRPRPRPYWDPRP
shrunken log2 fold change: 0.0849

RRIRKRPPRLPRPRPRPGSGPRP
shrunken log2 fold change: 0.708

RRIRWRPPRLPRPRPRPWLPPRP
shrunken log2 fold change: -0.188

RRIRHRPPRLPRPRPRPWIWPRP
shrunken log2 fold change: -0.0845

RRIRDRPPRLPRPRPRPGGKPRP
shrunken log2 fold change: -0.0179

RRIRERPPRLPRPRPRPRLDPRP
shrunken log2 fold change: 0.0479

RRIRRRPPRLPRPRPRPEDGPRP
shrunken log2 fold change: 0.445

RRIRIRPPRLPRPRPRPCSGPRP
shrunken log2 fold change: -0.852

RRIRQRPPRLPRPRPRPCTCPRP
shrunken log2 fold change: -0.0638

RRIRQRPPRLPRPRPRPQKEPRP
shrunken log2 fold change: -0.00507
